Assays:
[1] = target: CD123 (human IL-3Ralpha), form in the assay not stated (human) (UniProt P26951); assay: method not stated
[2] = target: CD123 (IL-3 receptor alpha chain, IL-3Ralpha) on cells (human) (UniProt P26951); assay: cell-based or functional assay

CSL360 (chimeric antibody: 7G3 variable regions on a human IgG1 constant region)
Kd [1]: 1.06 nM | % CD107a positive NK cells, PBMC with AML sample RMH003 and CSL360 [2]: 39% | % lysis, 51Cr release ADCC, CTLEN cells, E:T 10:1 [2]: 10% | % lysis, 51Cr release ADCC, CTLEN cells, E:T 100:1 [2]: 51% | % lysis, 51Cr release ADCC, SL (AML) cells, E:T 10:1 [2]: 2.4% | % lysis, 51Cr release ADCC, SL (AML) cells, E:T 100:1 [2]: 15% | % lysis, calcein release ADCC, RBH013 (AML), E:T 10:1 [2]: 0% | % lysis, calcein release ADCC, RBH013 (AML), E:T 100:1 [2]: 0% | % lysis, calcein release ADCC, RMH003 (AML), E:T 10:1 [2]: 39.2% | % lysis, calcein release ADCC, RMH003 (AML), E:T 100:1 [2]: 82.6% | % lysis, calcein release ADCC, RMH008 (AML), E:T 10:1 [2]: 59.5% | % lysis, calcein release ADCC, RMH008 (AML), E:T 100:1 [2]: 100% | % lysis, calcein release ADCC, RMH009 (B-ALL), E:T 10:1 [2]: 0% | % lysis, calcein release ADCC, RMH009 (B-ALL), E:T 100:1 [2]: 0% | % lysis, calcein release ADCC, RMH009* (B-ALL, repeat with other PBMC), E:T 10:1 [2]: 0% | % lysis, calcein release ADCC, RMH009* (B-ALL, repeat with other PBMC), E:T 100:1 [2]: 0% | % lysis, calcein release ADCC, RMH010 (AML), E:T 10:1 [2]: 4% | % lysis, calcein release ADCC, RMH010 (AML), E:T 100:1 [2]: 0% | % of NK cells expressing CD107a, CSL360 at E:T 1:1, CTLEN-001 [2]: 6.7% | % of NK cells expressing CD107a, CSL360 at E:T 1:1, CTLEN-008 [2]: 24% | % of NK cells expressing CD107a, CSL360 at E:T 1:1, CTLEN-010 [2]: 5.7% | % of NK cells expressing CD107a, CSL360 at E:T 1:1, CTLEN-011-PBMC-1 [2]: 8.1% | % of NK cells expressing CD107a, CSL360 at E:T 1:1, CTLEN-011-PBMC-2 [2]: 10.5% | % of NK cells expressing CD107a, CSL360 at E:T 1:1, EL4hi-002 [2]: 2.9% | % of NK cells expressing CD107a, CSL360 at E:T 1:1, EL4hi-003 [2]: 15% | % of NK cells expressing CD107a, CSL360 at E:T 1:1, EL4hi-004 [2]: 16% | % of NK cells expressing CD107a, CSL360 at E:T 1:1, EL4hi-005 [2]: 21% | % of NK cells expressing CD107a, CSL360 at E:T 1:1, EL4hi-010 [2]: 34% | % of NK cells expressing CD107a, CSL360 at E:T 1:1, EL4hi-011-PBMC-1 [2]: 15.5% | % of NK cells expressing CD107a, CSL360 at E:T 1:1, EL4hi-011-PBMC-2 [2]: 23.5% | % of NK cells expressing CD107a, CSL360 at E:T 1:1, EL4hi/lo-001 [2]: 2.8% | % of NK cells expressing CD107a, CSL360 at E:T 1:1, RBH009^a (AML) [2]: 8.5% | % of NK cells expressing CD107a, CSL360 at E:T 1:1, RBH009^b (AML) [2]: 8% | % of NK cells expressing CD107a, CSL360 at E:T 1:1, RBH013^a (AML) [2]: 10% | % of NK cells expressing CD107a, CSL360 at E:T 1:1, RBH013^b (AML) [2]: 22% | % of NK cells expressing CD107a, CSL360 at E:T 1:1, RMH003^a (AML) [2]: 30% | % of NK cells expressing CD107a, CSL360 at E:T 1:1, RMH003^b (AML) [2]: 33% | % of NK cells expressing CD107a, CSL360 at E:T 1:1, RMH003^c (AML) [2]: 38% | % of NK cells expressing CD107a, CSL360 at E:T 1:1, RMH007 (B-ALL) [2]: 16.4% | % of NK cells expressing CD107a, CSL360 at E:T 1:1, RMH008^a (AML) [2]: 9% | % of NK cells expressing CD107a, CSL360 at E:T 1:1, RMH008^b (AML) [2]: 16% | % of NK cells expressing CD107a, CSL360 at E:T 1:1, RMH008^c (AML) [2]: 8.7% | % of NK cells expressing CD107a, CSL360 at E:T 1:1, RMH009^a (B-ALL) [2]: 3% | % of NK cells expressing CD107a, CSL360 at E:T 1:1, RMH009^b (B-ALL) [2]: 1.7% | % of NK cells expressing CD107a, CSL360 at E:T 1:1, RMH009^c (B-ALL) [2]: 7.4% | % of NK cells expressing CD107a, CSL360 at E:T 1:1, RMH010^a (AML) [2]: 14% | % of NK cells expressing CD107a, CSL360 at E:T 1:1, RMH010^b (AML) [2]: 25.5% | % of NK cells expressing CD107a, CSL360 at E:T 1:1, RMH011 (AML) [2]: 6.6% | % of NK cells expressing CD107a, CSL360 at E:T 1:1, TF-1 (GM-CSF) [2]: 0.7% | % of NK cells expressing CD107a, CSL360 at E:T 1:1, TF-1 (IL-3) [2]: 1.45% | IC50, IL-3-dependent TF-1 cell proliferation [2]: 5 nM
